This note sets out measurements from patent US20240317847A1 (Bayer, published 2024).

Test [1] concerns the target T1, human IL2Ra (human, UniProt P01589 22-240, limits assumed).
T1 construct: bought protein, coated on the plate; also called hIL2RA; IL-2 receptor alpha
T1 sequence (looked up): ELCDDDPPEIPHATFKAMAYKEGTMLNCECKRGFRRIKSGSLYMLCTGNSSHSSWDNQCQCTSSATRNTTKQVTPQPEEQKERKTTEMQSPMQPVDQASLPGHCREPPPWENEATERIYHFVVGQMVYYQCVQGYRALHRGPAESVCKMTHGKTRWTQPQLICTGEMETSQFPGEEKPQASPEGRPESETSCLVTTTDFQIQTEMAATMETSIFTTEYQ
In words: IL2Ra direct binding ELISA, signal ratio to isotype control. In outline: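 Plates coated overnight at 4-8 °C with IL2RA at 1 or 0 μg/ml, blocked with SmartBlock. Antibody dilution series from 1E-7 to 2E-13 M bound 90 min at room temperature, detected with HRP anti-mouse IgG and Amplex red/H2O2; fluorescence at 535/590 nm.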

Test [2] concerns the target T2, human IL-11 (human, UniProt P20809 22-199).
T2 construct: Invigate recombinant protein; biotinylated when immobilized in the Di-complex ELISA; also called hIL11; hIL-11
T2 sequence: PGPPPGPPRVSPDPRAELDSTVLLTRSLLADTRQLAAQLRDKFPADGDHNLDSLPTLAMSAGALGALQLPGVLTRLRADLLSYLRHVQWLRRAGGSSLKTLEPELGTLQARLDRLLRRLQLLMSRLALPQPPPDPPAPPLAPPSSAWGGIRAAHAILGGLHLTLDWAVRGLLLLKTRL
The test can be described thus: SPR (Biacore), 25 C, antibody captured via anti-Fc, IL-11 as analyte, determined in steady state; SPR at 25 C, determined in steady state. As for the experimental part: (§1) To assess the binding kinetics and affinity of anti-IL-11 bispecific antibodies as well as their species cross-reactivity profile, binding assays were conducted using surface plasmon resonance (SPR). […] Antibodies were captured either via anti-human Fc IgGs (“Human antibody capture kit”, Order No. BR100839, Cytiva) or via anti-mouse Fc IgGs (“Mouse antibody capture kit, Order No. BR100383, Cytiva) covalently amine coupled to a Series S CM5 sensor chip (Cytiva) depending on the isotype. The amine coupling was carried out according to the manufacturer's instructions using 1-ethyl-3-(3-dimethylaminopropyl) carbodiimide hydrochloride (EDC), N-hydroxysuccinimide (NHS) and ethanolamine HCl, pH 8.5 (“Amine Coupling Kit” BR-1000-50, Cytiva.). Human, mouse, cynomolgus or rat IL-11 was used as analyte at several dilutions within the concentration range from 0.05-200 nM. For binding assays with only one concentration 200 nM IL-11 was used. The sensor surface was regenerated with glycine pH 1.7 after each antigen injection. Obtained sensorgrams were double referenced (subtraction of reference flow cell signal and buffer injection) and were fitted to a 1:1 Langmuir binding model to derive kinetic data using the Biacore T200 Evaluation software or the Biacore Insight software.
(§2) If no value is reported, there was either no binding or very low binding and multiphasic binding behavior.
(In general: Surface plasmon resonance follows binding to a sensor surface in real time, without labels.)

Test [3] concerns the target T3, rat IL-11 (rat, UniProt Q99MF5 22-199).
T3 construct: Invigate recombinant protein; also called rIL11
T3 sequence: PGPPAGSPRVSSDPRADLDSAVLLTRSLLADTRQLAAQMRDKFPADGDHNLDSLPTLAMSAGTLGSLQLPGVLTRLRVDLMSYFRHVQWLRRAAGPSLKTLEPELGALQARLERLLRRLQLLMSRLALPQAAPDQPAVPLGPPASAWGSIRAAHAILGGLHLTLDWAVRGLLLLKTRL
Described as above. As for the experimental part: as §1, §2

B1: TPP-18068 (antibody, mouse IgG1)
heavy: EVQLLESGGGLVQPGGSLRLSCAASGFTFSSYGMHWVRQAPGKGLEWVSVISYDGSYKYYADSVKGRFTISRDNSKNTLYLQMNSLRAEDTAVYYCAAGVPDYWGQGTLVTVSSAKTTPPSVYPLAPGSAAQTNSMVTLGCLVKGYFPEPVTVTWNSGSLSSGVHTFPAVLQSDLYTLSSSVTVPSSTWPSETVTCNVAHPASSTKVDKKIVPRDCGCKPCICTVPEVSSVFIFPPKPKDVLTITLTPKVTCVVVDISKDDPEVQFSWFVDDVEVHTAQTQPREEQFNSTFRSVSELPIMHQDWLNGKEFKCRVNSAAFPAPIEKTISKTKGRPKAPQVYTIPPPKEQMAKDKVSLTCMITDFFPEDITVEWQWNGQPAENYKNTQPIMDTDGSYFVYSKLNVQKSNWEAGNTFTCSVLHEGLHNHHTEKSLSHSPGK
light: QSVLTQPPSASGTPGQRVTISCTGSSSNIGAGYDVHWYQQLPGTAPKLLIYSNNERPSGVPDRFSGSKSGTSASLAISGLRSEDEADYYCAAWDDSLNGPVFGGGTKLTVLGQPKSSPSVTLFPPSSEELETNKATLVCTITDFYPGVVTVDWKVDGTPVTQGMETTQPSKQSNNKYMASSYLTLTARAWERHSSYSCQVTHEGHTVEKSLSRADCS
notes: mIgG1, Lambda
On to B1, for which, in test [1], the “hIL2RA ELISA Binding: Ratio to Isotpye” value turned out to be 398 ratio.

B2: TPP-18087 (antibody, mouse IgG1, V domains shown)
VH: EVQLLESGGGLVQPGGSLRLSCAASGFTFSHYDMNWLRQAPGKGLEWVGVISYDGSNKFYADFVKGRFTISRDNSKNTLYLQMNSLRAEDTAVYYCARTPGSHFDYWGQGTLVTVSS
VL: QSVLTQPPSASGTPGQRVTISCSGSSSNIGNNAVNWYQQLPGTAPKLLIYYDDLLPSGVPDRFSGSKSGTSASLAISGLRSEDEADYYCSAWDDSLNGVVFGGGTKLTVLG
notes: mIgG1, Lambda
B2: the dissociation constant Kd in test [2] worked out at 13 nM; in test [3], 34 nM.

For orientation: Kd means the free concentration of one partner at which half of the binding sites on the other are occupied at equilibrium, for simple one-to-one binding. The low end stands for tighter binding, the high end for weaker binding.
